In general, Tm refers to the temperature at the midpoint of the melting transition.

For this series the following is noted: Escherichia coli (strain K12), Thermal, CD, NaCl 0.1 M, reversible: yes, whole UniProt chain shown.

B1: Ribonuclease HI wild type, P0A7Y4 (protein)
chain: MLKQVEIFTDGSCLGNPGPGGYGAILRYRGREKTFSAGYTRTTNNRMELMAAIVALEALKEHCEVILSTDSQYVRQGITQWIHNWKKRGWKTADKKPVKNVDLWQRLDAALGQHQIKWEWVKGHAGHPENERCDELARAAAMNPTLEDTGYQVEV
Regarding B1, the Tm by setting is: (pH 3, glycine-HCl 10 mM) 50 °C; (pH 5.5, Sodium acetate 20 mM) 53.1 °C. Moreover, the “unfolding enthalpy (van 't Hoff)” value by setting is: (pH 3, glycine-HCl 10 mM) 449 kJ/mol; (pH 5.5, Sodium acetate 20 mM) 349 kJ/mol.

The values above are taken from FireProtDB (doi:10.1111/j.1432-1033.1994.tb18664.x).
